# Assay results: patent US20120189540A1 (STEMLINE THERAPEUTICS, published 2012)
# Substitutions are numbered along the chain they refer to.
# B1: monoclonal antibody 32701 (antibody, V domains shown)
# VH: QIQLVQSGPELKKPGETVKISCKTSGYVFTNYGMNWVKQAPGKGFKWMGWMNTNTGEPTSLEDFKGRFAFSLETSASTAYLQINNLKNDDTATYFCARSGGYDPMDYWGQGTSVTVSS
# VL: DIVLTQSPASLAVSPGQRATISCRASESVDNYGNTFMHWYQQKPGQPPKLLIYRASNLESGIPARFSGSDSRTDFTLTINPVEADDVATYYCQQSKEDPPTFGAGTKLELK
# B2: monoclonal antibody 32716 (antibody, V domains shown)
# VH: QIQLVQSGPELKKPGETVKISCKASGYIFTNYGMNWVKQAPGKSFKWMGWINTYTGESTYSADFKGRFAFSLETSASTAYLHINDLKNEDTATYFCARSGGYDPMDYWGQGTSVTVSS
# VL: B1 VL with P15L, D70G, K96N
# B3: monoclonal antibody 26292 (antibody, V domains shown)
# VH: QVQLQQPGAELVRPGASVKLSCKASGYTFTSYWMNWVKQRPDQGLEWIGRIDPYDSETHYNQKFKDKAILTVDKSSSTAYMQLSSLTSEDSAVYYCARGNWDDYWGQGTTLTVSS
# VL: DVQITQSPSYLAASPGETITINCRASKSISKDLAWYQEKPGKTNKLLIYSGSTLQSGIPSRFSGSGSGTDFTLTISSLEPEDFAMYYCQQHNKYPYTFGGGTKLEIK
# Columns and labels:
# [1] = biological target: transferrin receptor (human) (UniProt P02786); assay: cell-based or functional assay
# transferrin receptor (human), sequence (P02786 whole entry): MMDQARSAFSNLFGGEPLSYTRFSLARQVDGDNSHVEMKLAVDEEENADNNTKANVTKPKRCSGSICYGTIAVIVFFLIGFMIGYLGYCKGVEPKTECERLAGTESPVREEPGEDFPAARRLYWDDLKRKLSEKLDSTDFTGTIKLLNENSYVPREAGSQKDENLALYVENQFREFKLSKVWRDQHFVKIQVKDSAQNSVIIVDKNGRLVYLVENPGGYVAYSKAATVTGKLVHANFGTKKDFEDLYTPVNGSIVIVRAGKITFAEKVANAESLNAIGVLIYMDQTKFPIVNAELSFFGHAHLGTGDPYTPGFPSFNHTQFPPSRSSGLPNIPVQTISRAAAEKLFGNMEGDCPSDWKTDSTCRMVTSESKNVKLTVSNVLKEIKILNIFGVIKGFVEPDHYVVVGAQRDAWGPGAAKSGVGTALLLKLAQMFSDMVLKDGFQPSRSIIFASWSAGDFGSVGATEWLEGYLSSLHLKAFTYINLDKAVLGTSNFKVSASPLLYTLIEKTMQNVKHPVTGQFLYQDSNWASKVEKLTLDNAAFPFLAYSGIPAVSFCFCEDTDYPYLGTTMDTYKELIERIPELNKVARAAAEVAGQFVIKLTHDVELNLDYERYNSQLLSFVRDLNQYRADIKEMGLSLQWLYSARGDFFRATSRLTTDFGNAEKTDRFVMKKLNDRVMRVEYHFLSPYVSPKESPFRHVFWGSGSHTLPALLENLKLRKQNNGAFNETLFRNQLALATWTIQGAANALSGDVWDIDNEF
# [2] = biological target: IL-3 receptor alpha subunit (IL3Rα, CD123) (human) (UniProt P26951); assay: flow cytometry on ML-1 cells, isotype control-PE at 10 µg/ml [panel ML-1 (1900/cell]
# IL-3 receptor alpha subunit (IL3Rα, CD123) (human), sequence (P26951 19-378): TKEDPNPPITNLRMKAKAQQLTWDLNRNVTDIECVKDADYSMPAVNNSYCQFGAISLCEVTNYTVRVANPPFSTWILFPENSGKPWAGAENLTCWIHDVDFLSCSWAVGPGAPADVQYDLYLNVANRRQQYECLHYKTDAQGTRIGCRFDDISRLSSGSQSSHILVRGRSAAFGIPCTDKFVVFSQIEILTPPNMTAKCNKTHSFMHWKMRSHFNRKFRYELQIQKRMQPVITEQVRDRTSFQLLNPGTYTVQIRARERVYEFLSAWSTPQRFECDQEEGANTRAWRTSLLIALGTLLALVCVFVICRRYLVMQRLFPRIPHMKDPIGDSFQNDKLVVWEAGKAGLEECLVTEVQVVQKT
# [3] = biological target: T1, IL-3 receptor alpha subunit (IL3Rα, CD123) (human, UniProt P26951 19-378); assay: flow cytometry on TF-1 cells (CD123-expressing), mAb at 0.5 µg/ml, detected with R-PE goat F(ab')2 anti-mouse IgG, MOPC-21 isotype control subtracted [panel A]
# T1 construct: whole, on cells; also called IL3Rα chain; alpha subunit of the IL-3 receptor
# T1 sequence (P26951 19-378): as above
molecule,measurement,setting,value
HB21(Fv)-PE40 (scFv),"IC50(ng/ml), cytotoxicity (WST-8 cell viability) on ML-1",[1],5.2 ng/mL
same,"IC50(ng/ml), cytotoxicity (WST-8 cell viability) on Molm-14",[1],60 ng/mL
same,"IC50(ng/ml), cytotoxicity (WST-8 cell viability) on TF-1",[1],2.2 ng/mL
isotype control-PE (antibody),"number printed beside the histogram (fluorescence on the FL-2:PE axis, not named on the sheet)",[2],7.1
B1,binding result,[3],binds
B2,binding result,[3],binds
B3,binding result,[3],binds
